From the Human Domainome abundance scans (Beltran et al. 2025)
± gives the uncertainty stated by the source.

B1: POU domain, class 2, transcription factor 2, residues 200 to 269; numbered along this chain, P09086 (parent)
chain: LEELEQFARTFKQRRIKLGFTQGDVGLAMGKLYGNDFSQTTISRFEALNLSFKNMCKLKPLLEKWLNDAE
B2: Peroxisome proliferator-activated receptor delta, residues 71 to 145; numbered along this chain, Q03181 (parent)
chain: NMECRVCGDKASGFHYGVHACEGCKGFFRRTIRMKLEYEKCERSCKIQKKNRNKCQYCRFQKCLALGMSHNAIRF

Variants of: B1
Assay: abundance fitness (aPCA) (normalised: wild type 0, dead -1); higher = more abundant; growth selection in yeast, the domain comes from the species named
Details: Homo sapiens

In order of falling abundance fitness:
1. A69N  0.128 ± 0.25
2. F52T  0.069 ± 0.061
3. L58I  0.057 ± 0.11
4. A69T  0.056 ± 0.069
5. F52R  0.032 ± 0.036
6. K57T  0.024 ± 0.041
7. A69I  0.012 ± 0.11
8. K57M  0.01 ± 0.049
9. A69E  0.009 ± 0.069
10. L66V  0.007 ± 0.045
11. L58F  0.005 ± 0.095
12. K57G  0.002 ± 0.031
13. L66A  0.001 ± 0.056
14. K59I  0.001 ± 0.13
15. L58A  -0.002 ± 0.04
16. L58V  -0.005 ± 0.037
17. A69R  -0.007 ± 0.049
18. L58W  -0.007 ± 0.038
19. L58M  -0.011 ± 0.067
20. F52L  -0.014 ± 0.046
21. M55L  -0.021 ± 0.027
22. M55A  -0.022 ± 0.023
23. K57Q  -0.023 ± 0.061
24. F52W  -0.024 ± 0.055
25. F52I  -0.028 ± 0.063
26. F52K  -0.031 ± 0.085
27. K59V  -0.031 ± 0.036
28. A69L  -0.034 ± 0.062
29. F52V  -0.035 ± 0.05
30. F52A  -0.038 ± 0.046
31. F52E  -0.044 ± 0.071
32. A69S  -0.046 ± 0.051
33. L66Y  -0.047 ± 0.16
34. L58T  -0.049 ± 0.061
35. K57E  -0.05 ± 0.062
36. F52G  -0.053 ± 0.039
37. K57A  -0.057 ± 0.042
38. K57C  -0.058 ± 0.048
39. F52C  -0.062 ± 0.061
40. K57R  -0.064 ± 0.031
41. K57S  -0.067 ± 0.049
42. L58C  -0.067 ± 0.063
43. K57W  -0.068 ± 0.048
44. F52N  -0.069 ± 0.18
45. K59L  -0.069 ± 0.035
46. K59W  -0.078 ± 0.054
47. K59R  -0.078 ± 0.047
48. K59G  -0.079 ± 0.038
49. K57L  -0.08 ± 0.041
50. A69V  -0.084 ± 0.057
51. K59A  -0.086 ± 0.054
52. F52Q  -0.087 ± 0.084
53. K57V  -0.088 ± 0.042
54. K57Y  -0.089 ± 0.11
55. K59Q  -0.094 ± 0.076
56. F52Y  -0.096 ± 0.14
57. M55G  -0.097 ± 0.029
58. K59H  -0.098 ± 0.14
59. L58K  -0.099 ± 0.06
60. A69K  -0.105 ± 0.063
61. F52M  -0.105 ± 0.11
62. A69Y  -0.107 ± 0.093
63. F52P  -0.115 ± 0.099
64. K57N  -0.125 ± 0.091
65. A69G  -0.126 ± 0.049
66. M55F  -0.127 ± 0.06
67. M55Y  -0.135 ± 0.071
68. K59F  -0.14 ± 0.094
69. K59C  -0.14 ± 0.066
70. M55V  -0.142 ± 0.033
71. A69P  -0.15 ± 0.054
72. K57I  -0.153 ± 0.085
73. L58Y  -0.157 ± 0.06
74. M55H  -0.164 ± 0.075
75. K59T  -0.167 ± 0.049
76. M55I  -0.175 ± 0.061
77. A69F  -0.179 ± 0.085
78. L58Q  -0.194 ± 0.08
79. F52H  -0.2 ± 0.12
80. M55T  -0.213 ± 0.036
81. N67D  -0.221 ± 0.22
82. L58H  -0.221 ± 0.11
83. L58N  -0.227 ± 0.11
84. L58S  -0.228 ± 0.054
85. L66W  -0.232 ± 0.058
86. A69D  -0.233 ± 0.088
87. M55W  -0.24 ± 0.037
88. L58R  -0.259 ± 0.03
89. L66F  -0.27 ± 0.11
90. K59E  -0.293 ± 0.047
91. L66T  -0.355 ± 0.081
92. L66D  -0.358 ± 0.18
93. L66Q  -0.358 ± 0.076
94. L66G  -0.38 ± 0.046
95. L66E  -0.409 ± 0.077
96. K59N  -0.435 ± 0.11
97. M55D  -0.435 ± 0.078
98. M55C  -0.439 ± 0.13
99. K57P  -0.44 ± 0.064
100. S51Y  -0.461 ± 0.082
101. M55N  -0.463 ± 0.078
102. K57D  -0.47 ± 0.17
103. L58E  -0.478 ± 0.091
104. N67Y  -0.497 ± 0.38
105. M55R  -0.502 ± 0.028
106. S51V  -0.507 ± 0.043
107. M55E  -0.512 ± 0.049
108. L66H  -0.526 ± 0.36
109. L58D  -0.576 ± 0.074
110. L58G  -0.619 ± 0.042
111. L66P  -0.719 ± 0.3
112. L58P  -0.747 ± 0.12
113. K59P  -0.761 ± 0.12
114. L66R  -0.837 ± 0.079
115. S51W  -0.907 ± 0.091

Variants of: B2
Assay: as above
Details: Homo sapiens

In order of rising abundance fitness:
1. C4G  -0.911 ± 0.12
2. C4F  -0.675 ± 0.2
3. N1W  -0.593 ± 0.12
4. M2P  -0.58 ± 0.11
5. C4E  -0.571 ± 0.12
6. M2W  -0.527 ± 0.098
7. M2A  -0.526 ± 0.091
8. N1P  -0.475 ± 0.21
9. N1L  -0.455 ± 0.084
10. M2F  -0.432 ± 0.39
11. N1C  -0.421 ± 0.11
12. M2R  -0.417 ± 0.048
13. E3P  -0.353 ± 0.058
14. E3R  -0.327 ± 0.041
15. M2L  -0.315 ± 0.059
16. M2S  -0.305 ± 0.056
17. N1R  -0.296 ± 0.064
18. E3C  -0.278 ± 0.076
19. M2H  -0.276 ± 0.12
20. N1Y  -0.266 ± 0.15
21. M2K  -0.249 ± 0.082
22. M2E  -0.227 ± 0.063
23. N1Q  -0.218 ± 0.12
24. N1G  -0.212 ± 0.049
25. M2N  -0.21 ± 0.09
26. E3A  -0.204 ± 0.047
27. E3Y  -0.182 ± 0.086
28. N1A  -0.179 ± 0.067
29. E3V  -0.178 ± 0.045
30. E3W  -0.176 ± 0.054
31. M2T  -0.156 ± 0.052
32. M2V  -0.155 ± 0.051
33. N1H  -0.155 ± 0.11
34. N1V  -0.141 ± 0.057
35. M2Y  -0.113 ± 0.1
36. E3L  -0.106 ± 0.041
37. E3T  -0.102 ± 0.047
38. E3K  -0.089 ± 0.057
39. E3F  -0.086 ± 0.08
40. E3N  -0.079 ± 0.068
41. N1K  -0.075 ± 0.073
42. N1E  -0.07 ± 0.065
43. M2C  -0.064 ± 0.08
44. E3Q  -0.059 ± 0.048
45. M2D  -0.056 ± 0.079
46. N1D  -0.049 ± 0.066
47. E3I  -0.044 ± 0.081
48. E3S  -0.033 ± 0.041
49. E3H  -0.027 ± 0.077
50. N1T  -0.012 ± 0.067
51. E3D  0.059 ± 0.064
52. N1I  0.16 ± 0.078
